The text below walks through data of paper PMC3268518 (Molecular Cell, 2011).

Test [1] concerns the target T1, co-purified GST-eIF4G1/eIF4E complex (yeast, UniProt P39935 1-952; P07260 1-213).
T1 sequence (looked up) 1: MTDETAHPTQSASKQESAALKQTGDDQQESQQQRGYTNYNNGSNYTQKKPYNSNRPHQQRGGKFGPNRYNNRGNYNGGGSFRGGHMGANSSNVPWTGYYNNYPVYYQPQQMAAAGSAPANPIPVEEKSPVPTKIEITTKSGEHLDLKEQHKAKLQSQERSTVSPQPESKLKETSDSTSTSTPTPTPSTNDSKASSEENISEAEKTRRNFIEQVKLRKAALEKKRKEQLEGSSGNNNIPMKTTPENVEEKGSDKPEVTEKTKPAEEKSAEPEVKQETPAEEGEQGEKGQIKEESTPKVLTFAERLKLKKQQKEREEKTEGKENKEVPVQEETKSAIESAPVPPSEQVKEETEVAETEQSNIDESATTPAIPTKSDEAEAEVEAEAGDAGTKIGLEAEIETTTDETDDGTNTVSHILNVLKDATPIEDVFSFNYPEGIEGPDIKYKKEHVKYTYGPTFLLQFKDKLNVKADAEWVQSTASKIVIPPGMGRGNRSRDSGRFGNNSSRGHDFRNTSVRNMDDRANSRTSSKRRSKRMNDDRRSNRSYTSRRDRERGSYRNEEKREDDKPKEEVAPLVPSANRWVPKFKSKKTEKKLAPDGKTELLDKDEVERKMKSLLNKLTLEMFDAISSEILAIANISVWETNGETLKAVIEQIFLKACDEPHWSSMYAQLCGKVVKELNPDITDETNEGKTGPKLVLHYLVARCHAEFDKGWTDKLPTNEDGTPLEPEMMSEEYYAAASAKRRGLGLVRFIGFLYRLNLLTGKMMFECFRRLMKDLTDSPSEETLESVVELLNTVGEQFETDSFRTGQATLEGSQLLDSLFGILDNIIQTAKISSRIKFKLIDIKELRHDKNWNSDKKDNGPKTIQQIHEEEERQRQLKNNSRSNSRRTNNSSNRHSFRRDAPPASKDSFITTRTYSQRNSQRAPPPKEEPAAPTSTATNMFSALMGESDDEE
T1 sequence (looked up) 2: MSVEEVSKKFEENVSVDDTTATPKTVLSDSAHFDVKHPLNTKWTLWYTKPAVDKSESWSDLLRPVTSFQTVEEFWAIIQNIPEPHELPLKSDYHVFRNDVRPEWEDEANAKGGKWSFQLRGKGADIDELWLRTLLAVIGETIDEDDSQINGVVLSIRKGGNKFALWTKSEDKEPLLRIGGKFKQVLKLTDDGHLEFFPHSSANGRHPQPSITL
Nature of the test: pull-down.

The target of test [2] is recombinant wild type Ded1 (yeast, UniProt P06634 1-604). Nature of the test: pull-down.

B1: rded1Δ21-27 (enzyme, yeast, UniProt P06634 1-604, looked up)
chain: MAELSEQVQNLSINDNNENGGKPRSARNNSSNYNNNNGGYNGGRGGGSFFSNNRRGGYGNGGFFGGNNGGSRSNGRSGGRWIDGKHVPAPRNEKAEIAIFGVPEDPNFQSSGINFDNYDDIPVDASGKDVPEPITEFTSPPLDGLLLENIKLARFTKPTPVQKYSVPIVANGRDLMACAQTGSGKTGGFLFPVLSESFKTGPSPQPESQGSFYQRKAYPTAVIMAPTRELATQIFDEAKKFTYRSWVKACVVYGGSPIGNQLREIERGCDLLVATPGRLNDLLERGKISLANVKYLVLDEADRMLDMGFEPQIRHIVEDCDMTPVGERQTLMFSATFPADIQHLARDFLSDYIFLSVGRVGSTSENITQKVLYVENQDKKSALLDLLSASTDGLTLIFVETKRMADQLTDFLIMQNFRATAIHGDRTQSERERALAAFRSGAATLLVATAVAARGLDIPNVTHVINYDLPSDVDDYVHRIGRTGRAGNTGLATAFFNSENSNIVKGLHEILTEANQEVPSFLKDAMMSAPGSRSNSRRGGFGRNNNRDYRKAGGASAGGWGSSRSRDNSFRGGSGWGSDSKSSGWGNSGGSNNSSWW
For the molecule B1, the binding result in test [1] is on record as “binds”.

B2: GST-eIF4G1 fragment eIF4G 883-952 (domain or fragment, yeast, UniProt P39935 883-952, looked up)
chain: SNSRRTNNSSNRHSFRRDAPPASKDSFITTRTYSQRNSQRAPPPKEEPAAPTSTATNMFSALMGESDDEE
In the case of B2, in test [2], the binding result is on record as “binds”.
